Results reported in PMC2978359.

Experiments:
MBD of MeCP2 (wild type) [1] = biological target: T1, MBD of MeCP2 (wild type) (human/mouse (residues 76-167 identical), UniProt P51608 76-167); experiment: EMSA/T4 endonuclease V
MBD of MeCP2 (wild type) [2] = biological target: T1, MBD of MeCP2 (wild type); experiment: EMSA
MBD of MeCP2 (wild type) [3] = biological target: T1, MBD of MeCP2 (wild type); experiment: EMSA; remark: listed apart in the source
MBD of MeCP2 (wild type) [4] = biological target: T1, MBD of MeCP2 (wild type); experiment: EMSA; remark: listed apart in the source
MBD of MeCP2 (wild type) [5] = biological target: T1, MBD of MeCP2 (wild type); experiment: EMSA/T4 endonuclease V; remark: listed apart in the source

T1 sequence (P51608 76-167): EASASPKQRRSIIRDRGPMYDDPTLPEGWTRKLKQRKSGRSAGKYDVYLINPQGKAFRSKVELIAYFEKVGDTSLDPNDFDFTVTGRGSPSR

B1: T=TTmCG•mCGAAA CPD duplex (dsDNA)
DNA 1: TAGAAGAATTTCGTTCCAGA
DNA 2: TCTGGAACGAAATTCTTCTA
modifications: 5-methyl-dC at strand 1 pos 12 and strand 2 pos 8; cis-syn CPD between T9 and T10
B1 gave a Kd (MBD of MeCP2 (wild type) [1]) of 47 ± 14 nM.

B2: CmCG•mCGG in AT tract (dsDNA)
DNA 1: TTATTTTTATCCGTTTTTAATTAT
DNA 2: ATAATTAAAAACGGATAAAAATAA
modifications: 5-methyl-dC at strand 1 pos 12 and strand 2 pos 12
B2 gave a Kd (MBD of MeCP2 (wild type) [2]) of ~15 nM.

B3: T=TmCG•mCGAA CPD duplex (dsDNA)
DNA 1: TAGAAGAATTTCGTTCCAGA
DNA 2: TCTGGAACGAAATTCTTCTA
modifications: 5-methyl-dC at strand 1 pos 12 and strand 2 pos 8; cis-syn CPD between T10 and T11
Binder B3 has a Kd (MBD of MeCP2 (wild type) [1]) of 13 ± 3 nM.

B4: CTG•mCGG single-mismatch duplex (dsDNA)
DNA 1: TAGAAGAATTCTGTTCCAGA
DNA 2: TCTGGAACGGAATTCTTCTA
modifications: 5-methyl-dC at strand 2 pos 8
B4 was tested, and the Kd (MBD of MeCP2 (wild type) [3]) was 66 ± 22 nM.

B5: C=mCG•mCGG CPD duplex (dsDNA)
DNA 1: TAGAAGAATTCCGTTCCAGA
DNA 2: TCTGGAACGGAATTCTTCTA
modifications: 5-methyl-dC at strand 1 pos 12 and strand 2 pos 8; cis-syn CPD between C11 and mC12
B5 gave a Kd (MBD of MeCP2 (wild type) [1]) of 11 ± 3 nM.

B6: CmCG•mCGG duplex (BDNF promoter III) (dsDNA)
DNA 1: TAGAAGAATTCCGTTCCAGA
DNA 2: TCTGGAACGGAATTCTTCTA
modifications: 5-methyl-dC at strand 1 pos 12 and strand 2 pos 8
In the case of B6, the Kd (MBD of MeCP2 (wild type) [4]) is reported as 12.5 ± 3.5 nM and the Kd (MBD of MeCP2 (wild type) [5]) is reported as 46 ± 26 nM.

B7: TmCG•mCGA duplex (dsDNA)
DNA 1: TAGAAGAATTTCGTTCCAGA
DNA 2: TCTGGAACGAAATTCTTCTA
modifications: 5-methyl-dC at strand 1 pos 12 and strand 2 pos 8
Binder B7 has a Kd (MBD of MeCP2 (wild type) [3]) of 35 ± 9 nM and a Kd (MBD of MeCP2 (wild type) [5]) of 75 ± 35 nM.
